For four substances, IC50, share of the high affinity binding in the total binding and TG/wt (binding to P301L tau from Tg4510 mice over wild type) results are on record in patent publication US20190330320A1.

pIC50: −log10 of the molar value.

The target of assay [1] is pathological hyperphosphorylated tau from human Alzheimer's disease brain (AD-P3 antigens) (human) (UniProt P10636). Nature of the assay: fluid phase inhibition of AD-P3 tau capture on MSD plates coated with mouse C10-2; two-site fit, high affinity part.
The target is the same in assay [2]. Nature of the assay: fluid phase inhibition of AD-P3 tau capture on MSD plates coated with mouse C10-2; two-site fit, low affinity part.
Assay [3] shares this target. In words: fluid phase inhibition of AD-P3 tau capture on MSD plates coated with mouse C10-2; two-site fit.
For assay [4], the target named is hyperphosphorylated human tau P301L (4R0N) from rTg4510 mouse brain (64 and 70 kDa species) (human) (UniProt P10636). In words: binding to P301L human mutant tau isolated from 10 month old Tg4510 mice.
Assay [5] addresses pathological hyperphosphorylated tau from human Alzheimer's disease brain (AD-P3 antigens) (human) (UniProt P10636). Nature of the assay: fluid phase inhibition of Ptau antigen capture in C10-2 coated plate.

pathological hyperphosphorylated tau from human Alzheimer's disease brain (AD-P3 antigens) (human), sequence (P10636 other isoform, or with tags, fused parts or gaps limits assumed): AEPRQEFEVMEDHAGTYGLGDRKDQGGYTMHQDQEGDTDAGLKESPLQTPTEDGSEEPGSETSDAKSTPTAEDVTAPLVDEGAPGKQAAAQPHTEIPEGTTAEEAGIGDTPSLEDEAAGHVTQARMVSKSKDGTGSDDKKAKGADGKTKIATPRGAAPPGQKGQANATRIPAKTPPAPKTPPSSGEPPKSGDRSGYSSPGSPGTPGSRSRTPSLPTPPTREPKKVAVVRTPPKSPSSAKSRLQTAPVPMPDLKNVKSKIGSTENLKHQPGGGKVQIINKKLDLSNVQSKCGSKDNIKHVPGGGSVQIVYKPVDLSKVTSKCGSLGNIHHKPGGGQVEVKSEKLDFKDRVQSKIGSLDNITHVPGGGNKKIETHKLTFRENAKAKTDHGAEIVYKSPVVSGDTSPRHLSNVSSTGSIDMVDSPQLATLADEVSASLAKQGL
hyperphosphorylated human tau P301L (4R0N) from rTg4510 mouse brain (64 and 70 kDa species) (human), sequence (P10636 other isoform, or with tags, fused parts or gaps P301L P301L): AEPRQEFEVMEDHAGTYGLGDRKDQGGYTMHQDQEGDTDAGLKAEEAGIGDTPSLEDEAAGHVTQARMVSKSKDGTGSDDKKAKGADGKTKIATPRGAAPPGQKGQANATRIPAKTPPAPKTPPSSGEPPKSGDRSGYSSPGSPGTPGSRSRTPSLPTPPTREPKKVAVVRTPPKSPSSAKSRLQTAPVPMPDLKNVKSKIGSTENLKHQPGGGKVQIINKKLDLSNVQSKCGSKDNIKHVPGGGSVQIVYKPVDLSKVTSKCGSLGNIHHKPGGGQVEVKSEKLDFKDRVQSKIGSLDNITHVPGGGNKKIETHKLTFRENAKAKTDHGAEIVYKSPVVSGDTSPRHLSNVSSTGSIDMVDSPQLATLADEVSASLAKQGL
HJ8.5 (antibody), sequence (VH): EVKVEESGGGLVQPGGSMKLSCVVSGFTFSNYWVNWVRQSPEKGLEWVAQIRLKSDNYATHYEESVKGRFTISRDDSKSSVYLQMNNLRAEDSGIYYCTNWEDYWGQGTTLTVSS
HJ8.5 (antibody), sequence (VL): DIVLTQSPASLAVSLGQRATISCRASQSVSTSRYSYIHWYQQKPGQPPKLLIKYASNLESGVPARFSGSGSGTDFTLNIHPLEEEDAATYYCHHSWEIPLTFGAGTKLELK
IPN002 (antibody), sequence (VH): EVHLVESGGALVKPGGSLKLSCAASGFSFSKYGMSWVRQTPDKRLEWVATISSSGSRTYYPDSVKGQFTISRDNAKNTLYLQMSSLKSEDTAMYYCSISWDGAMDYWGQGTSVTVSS
IPN002 (antibody), sequence (VL): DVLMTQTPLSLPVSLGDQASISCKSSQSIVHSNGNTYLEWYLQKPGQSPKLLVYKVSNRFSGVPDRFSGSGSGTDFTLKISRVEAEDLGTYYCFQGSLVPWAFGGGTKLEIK

By pIC50 is commonly meant the negative decadic logarithm of the IC50, by convention in mol/L. A low value points to a high IC50. On to Antibody C10-2 (humanized C10-2), for which the pIC50 in assay [1] was 7.85; in assay [2], 6.20. In assay [3], this substance returned a share of the high affinity binding in the total binding of under 25%.

HJ8.5 (antibody) gave a TG/wt (binding to P301L tau from Tg4510 mice over wild type) in assay [4] of 51.

As to IPN002 (antibody), the TG/wt (binding to P301L tau from Tg4510 mice over wild type) in assay [4] was 37.

As to PHF-13 (antibody), the negative-log IC50 (pIC50) in assay [5] was 6.00 to 6.30.
